# In the DeepSol protein solubility set:
# Experiment: soluble on expression in E. coli; label from the status in PepcDB or PDB records
row,Sequence,soluble on expression in E. coli
1,MGSDKIHHHHHHMLFCSMNAVRNWYILPVFFITSFISKGQNGALIPDTYDQFFQNYYLINPANTDTAGVILHMGHKSQLGVFRGVRQTYFDANFRIQSNRFNRAHSVGIQLFNNSEGDFFSKNRIYGRYAFDIHLSETYFLSAGIAVGAVSYAFKATQSSAGGSDLAYDGSTGLWVVGRKLKAGISIQQISQGKLSPLGQIFELRRQYNANVSYLFFINPDIQLTTHVWYKYQQHNMHDVQVAAIITLQNLVEFGGNYKYQKGVVLIGGLKDIHIGTSSLSLAMSYSTGILNYLAKGDNAVEVFLTYSR,not soluble
2,QIQLVQSGPELKKPGETVKISCKASGYTFTDYSMYWVKQAPGKGLKRMGWINTETGEPTYADDFKGRFALSLDTSASTAYLHISNLKNEDTATYFCARGLDSWGQGTSVTVSSAKTTPPSVYPLAPGCGDTTGSSVTLGCLVKGYFPESVTVTWNSGSLSSSVHTFPALLQSGLYTMSSSVTVPSSTWPSQTVTCSVAHPASSTTVDKKLEPS,soluble
3,SSPTMTSSLRLRTLILGKQRWIKPRNFYQFCDKYAIGYENKKNNSLRNHKILRFNDGSVANYRIYEFEIYNFNSDSWKVFDFTPDWDISFTDLSVSLKGYTYWLIRSNGLIQEYYARSLRKMMIKNY,soluble
4,MANLDDELALFESELAELEQASSNSEEPASSQTHVGYDNATISAGPTTSESSAATSSAQVIQPSLLAAPPFIPIAATIAVSPFINPALGRLPTMPPVPPSIFMPPQLRAAPIMFPPRVLGIPAPATIEGAPALYETPAVNAIPQELLRTQALQSDIDKMNFKKQTDPFKKKIKEQQAKKKFVRSGGGQVWEDPSLAEWDENDFRVFCGDLGNEVSDELLAKAFRKYPSFQKAKVVRESRTNKSKGYGFVSFRDSEDYVRAMREMDGKYVGNRPIKLRKSAWKERNIDVIKQKRKQKKELGIL,soluble
5,DRILAQERLCRSEERYRLLFEEMMSGCALHELICDRDGNPADYRFLAVNGAFERMTGLRAADIVGKTVLEVMPGTERHWIERYGDVALSGRSAEFEEYAGAIGRYYSVRAYCPERGKFAAVFNDIT,not soluble
6,MKKIAIFGSAFNPPSLGHKSVIESLSHFDLVLLEPSIAHAWGKNMLDYPIRCKLVDAFIKDMGLSNVQRSDLEQALYQPGQSVTTYALLEKIQEIYPTADITFVIGPDNFFKFAKFYKAEEITERWTVMACPEKVKIRSTDIRNALIEGKDISTYTTPTVSELLLNEGLYRETLSGK,soluble
7,MKEIDIIQQIKLGEVSKVQFKERLLDNYDIGCELVAFSNARGGTLVVGAVDKTGNINPLSYLEVQETTNTLSNIASENVVPAILVDVETISVDGGSLVVAHIKEGLNKPYHDNRGIVWVKNGADKRKVFDNAELAEMMTDCGSFSPDEAGVRDATIKDLDEGTIKTFLSNKFDKVLARKGLVGDAFREASLDTVCSAIASGHNGEKLLRNLRFIRPDGKITVAAMLLFGKYTQRWLPMMTAKCICFVGNNLGGTQFRDKVNDADIEGNLLHQFETIMDFFTRNLRHIQVGNEFNSQGVLEIPYTSLVEFTVNALVHRSLNATAPIRIFIFDDRVEIHSPGILPNGLTVDDIVIGTSMPRNMFLFTNAIHLLPYTGAGSGMLRALSEDVNVSFTNNDRTNEFVITINRQISNQPNADSDTDLDTDSDTFNADSDTKLRYSDTDLDTDSDTFNADSDTIRPKITNKQRDIVNFCSVPRSSKEILERVGVTYHSKNIQTYIMSLIEAGYLEMTNPEHPNASNQKYRRSKKLEHHHHHH,soluble
8,MEKPDINVAEAWEQYWNKTLVNATPVLWDANVERAVVVDLPRFQSFFDTELPLIDFACGNGTQTKFLSQFFPRVIGFDVSKTALEMASKENTAANISYRLLDGLVPEQAAQIHSEIGDANIYMRTGFHHIPVEKRELLAQSLRTLLGKQGVMYLIELGTGCIEFFNSLLEKYGKLPYELSLVMEHGIRPGIFTTEDIELYFPDFEILSQGESLFQSIHKLPDGNYATPPAFWAVIKRHLEHHHHHH,soluble
9,MGSDKIHHHHHHMNKVTINPQIQLTYQIEGKGDPIILLHGLDGNLAGFEDLQHQLASSYKVLTYDLRGHGKSSKSESYDLNDHVEDLKILMEKLNIHEAHILGHDLGGVVAKLFTDKYAYRVKSLTTIASKKDDLIHSFTQLLIQYQDDIAGFNKSEAYILLFSKLFRNQEKTMKWYQKQRIYSIKSEDDSAVAIRSLILHKDEPMYLKKRTCVPTLLINGEHDPLIKDKNHFKLEAHFLNVTKKIFEHSGHAPHIEEPEAFMNYYLNFLKSVS,not soluble
